This is an account of results in paper PMC2879526.

Series [1] deals with T1, THAP zinc finger of hTHAP1 (C62S/C67S) (Homo sapiens, UniProt Q9NVV9 1-81, C62S;C67S).
T1 sequence: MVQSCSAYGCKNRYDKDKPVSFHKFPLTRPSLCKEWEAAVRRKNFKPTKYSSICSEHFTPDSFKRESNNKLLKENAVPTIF
Put plainly: fluorescence anisotropy.

The target in series [2] is T2, THAP zinc finger of hTHAP1 K24A (Homo sapiens, UniProt Q9NVV9 1-81, K24A).
T2 sequence: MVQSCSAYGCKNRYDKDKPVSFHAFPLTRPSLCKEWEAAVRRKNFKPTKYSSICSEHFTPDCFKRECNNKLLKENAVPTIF
Put plainly: fluorescence anisotropy.

B1: rrm1 16-bp (THABS) (dsDNA)
DNA 1: GCTTGTGTGGGCAGCG
DNA 2: CGCTGCCCACACAAGC
The molecule B1 had a Kd in series [1] of 480 ± 60 nM.

B2: non-specific 16-bp DNA (dsDNA)
DNA 1: CGATTTGAATTTTAAC
DNA 2: GTTAAAATTCAAATCG
For the molecule B2, in series [2], the binding result is listed as “binds”.
